Measured values reported in patent publication US20110230416A1.

What was measured:
[1] = target: hLDLR of non-genetically modified human cells (human fibroblasts, HUVEC) (human) (UniProt P01130); test: FACS on HUVEC, competition; displaced: bacterial viruses expressing SEQ ID NO: 21
[2] = target: hLDLR of non-genetically modified human cells (human fibroblasts, HUVEC) (human) (UniProt P01130); test: FACS on HUVEC, competition; displaced: bacterial viruses expressing SEQ ID NO: 11

Sequence of hLDLR of non-genetically modified human cells (human fibroblasts, HUVEC) (human) (P01130 22-860): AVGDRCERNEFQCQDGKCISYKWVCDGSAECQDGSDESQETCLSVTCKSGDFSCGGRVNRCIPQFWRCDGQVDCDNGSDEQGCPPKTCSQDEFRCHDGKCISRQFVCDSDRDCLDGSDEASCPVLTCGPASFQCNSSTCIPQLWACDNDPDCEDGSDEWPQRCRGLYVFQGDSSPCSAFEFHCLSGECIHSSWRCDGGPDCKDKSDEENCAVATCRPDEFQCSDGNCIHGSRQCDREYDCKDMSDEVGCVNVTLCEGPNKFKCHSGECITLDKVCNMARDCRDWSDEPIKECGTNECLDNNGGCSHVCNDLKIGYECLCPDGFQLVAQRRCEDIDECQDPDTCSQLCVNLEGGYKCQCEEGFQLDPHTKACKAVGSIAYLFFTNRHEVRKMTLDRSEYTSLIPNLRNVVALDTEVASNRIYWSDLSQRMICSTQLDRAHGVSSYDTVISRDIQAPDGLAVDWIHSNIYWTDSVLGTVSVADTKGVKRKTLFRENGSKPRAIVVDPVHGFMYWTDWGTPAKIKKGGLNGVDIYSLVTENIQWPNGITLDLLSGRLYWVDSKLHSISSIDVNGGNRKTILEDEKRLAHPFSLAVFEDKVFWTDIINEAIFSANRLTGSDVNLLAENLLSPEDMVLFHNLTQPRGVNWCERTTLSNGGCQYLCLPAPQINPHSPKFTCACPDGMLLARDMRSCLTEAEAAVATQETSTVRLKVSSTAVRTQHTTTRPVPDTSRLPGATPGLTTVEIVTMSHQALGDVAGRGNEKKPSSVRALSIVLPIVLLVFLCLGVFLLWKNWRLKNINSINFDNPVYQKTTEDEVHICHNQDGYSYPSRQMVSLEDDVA

- loss of signal in Q2 on adding LDL [1]: 85%
- loss of signal in Q2 on adding LDL [2]: 17%
Substance: LDL, natural ligand of hLDLR
